Test results reported in PMC3905015.

Target: monomeric red fluorescent protein (mRFP)
Assay: native MS; ESI-TWIMS-MS (nanoESI, Synapt HDMS), purified protein in 50 mM ammonium acetate; gas phase; self-association

monomeric red fluorescent protein (mRFP)
stoichiometry N: 2
